Measured values as given in the NTF2 design screens of Basanta et al. (2020).

Assay: protease stability score; higher = more stable; yeast display proteolysis, trypsin and chymotrypsin;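 also: relative to predicted unfolded state with 0 unfolded-like and 1 meaning tenfold more protease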

Sequence	protease stability score
SEMEETLKKAFHNLLEHIKTGDEQLLKEFLDPNTKVEVDGVELIGMEKFIELMREIEKRVDVIRSLELEHWEVVGNKIRMEVRLNIEINGKDTFTRTHLIALKVNGRWILHSVRIG	1.75
SEMEEVAVREWEILVKALRTGDERIISELMDPHARVDYNGRQLHGREEVKKFLEEIRIVTHHTEIKDHEYQGNKLIMHGHVDVENEYGDKTERIDTHIHIILRKVNGRWFITEIDIR	2.53
SEMEEVYKRWVDLFRHAMDTGNEDLHLHLLDPHVRININGVELIGRDDDRDHLERLRKELGVSRFEMRVRIRDVDIQGDKIRSETEFTVIFNGREIIIKTRLILEKVNGRWILRSLEYN	1.39
SEMEHNLLEFIEHLLRNWRTGDEDREHELADPHYRIDVNGVELHGMEYLLEMFRRLGIDHMEFELKRSTVVGDFAIVDGNLQFHVDGKWERRKVKMVNKKVDGRWHHTQFSVN	1.5
SEMEHQSRKILEDTLRQWLTGDWHSLHELMDPNTKLDVGDKHFHGREAVKVFLERADHVKDLQIDHMRIQGDKIETDVHMHVTVGDKEKDVEVELIVLKVNGKWLLRSASIK	1.22
SEMEKLYRDLYKRFLDNWVTGDEEKLIKYADPNTRLHVGDKHHHGMEHISHLFLEFVYRADHHEYRIDRLEVVDGVAISDGRMREEIGEFELRFDVEIRIVIVNGRLKWIEVSFK	0.839
SEMENLAREALRIIFHNVLTGDEEEFIRMADPNVRFDINGVEYHGWKRVLQELQRFKGLRIHHIHLEDMDNQGDKIIIYSKLEVHYNGVHTELTVEFISEKVNGRWILRMVVFH	2.47
SEMHEATEHLLKLWVHIFETGNEKWFNKLADPDYRSRILYGDKELKSHGRENVVEVLYRWLKHFGFDHVRLEDEHIQGNKVHLHFRVQVNGRHHELDLNIDMVNGKIRHVEVILH	1.5
SEMHEDAEEVLRRISHYLNTGDEDSFLEMADPHTRIRVGNKEYIGREWSLVLIEKVKGARQEIRIELKDVNLVNGRLEVDGRFRLHYRFNGKTVDEHRNVIVYSYKFNGRWEIKSEQVD	1.49
SENDELNEKLVRDWIISLHTGDEETLRDLLDPHVKVEVGEKRMHGREEYVTHLLHHARRADHIRIEIHQVHNQGDKVNIDGTLHIDVNGKHQHHRVTIIASKVNGKWLIESINIH	1.03
SENEETAEDVIELVIEAWVTGDEDLFLSLLDPRVRLEVNGVHHHGRERVLEEIIKNLETLGVDHIEIRIREIKLIGEWVEIHGELIYRYNGVHERRDVEIIAFKFNGRWVLRSLRVR	1.82
SENEKILHDLSKELFDIYHTGNEERWSEMADPHVKIDVNGQEYHGREEVEEELEHWRRRFKNARYEIHKIHVFDGRLLIEGHINIDGKKRQIHFRIHVVNGKIKEMRIEIR	1.82
SENEKRMRELAEIILISWWTGDEDTLKDLADPRTRVNIDGVDLIGMELTSEFLERHLREMRIHSIELESITVIDGQAHIHLEVDTVVNGVRIRTKIHILVVTVDGRLKSEHYHRR	0.446
SENHKLSREALEHFLHLVHTGDFEKIYHMLDPNVKSEAENHHDHGMRDVVHLWRTMGIDHIRVHEVRIFENHLDVDMISIVGDKHFRLNIHIRKVNGRWQTELVRVN	1.8
SENHRNLLEWARIALEALITGDWKMLLDLLDPNVRFIFNGVHLHGMEHVFHRMTREIKEIRIKFEVHDMRSIGEKVEMDTRRHVEVNGVETTIDTRVHVVVIDGVIHEIRIEHR	1.1
SENKRVAVEWVRDFLRALRTGDEDRVRQLADPHVRIDFNGRDHHGRHFLVRMLREIRIHDVRIRDVDVQGDFLITELEIDVEIDGKRDTLRMNIIFEKVDGRWMVSEVQFE	1.5
SEQDEMAEKWVHMFLHSWFTGDEDFFETLLDPNVQLIVNGKHHHGREDVKRFLHEEYRRIDHIEDFHLRRLEIQGDFARLDGEVIMIVNGRRHEFRVEIRLFIVNGKMRSIEINEE	2.23
SEQEEITKKATEDMLRNIETGDPDMIDHLLDPDVRQEIIINGRSHENHGMEKLRKWLSTWHDEFKNVKYDLRTVEIIDGRVRIEGVLNVDGVDLHIEIRLVIVNGKLREVYHHVD	1.36
SEQEELSKKFFHDLLHAMKTGDESSLYSFLDPNMKHEFDGKVIHGMEEVARIIVEKLERADHHDIRIHDEKMQGDYLVMDVRIIINIDGKEVIKDIKLTWLKIDGRWHVTSVVLH	1.73
SEQEERETRFMEKAWDLLRTGDEHLLERLADPNARLEIDGRKKHGRETIIEYFRHVKEHLGFKHIELHHMHLVDGVLHIDGIFRYGDKTHRTEIVYYVVNGRLERIEIIIL	1.22
SEQEESRRWWLEELLTFLVTGDENRLKELLDPDVRVVVNGKHLHGMEAFEEYLRQIDHVDSHKVTDVKVQGNKIIVHTRAKINVDGRHVETELIFIVHKIDGKWKLHSFESR	1.69
SEQEEYLKEYAKHFYEFLLTGDEDWLKRLFDPEARLTVEVGDKTEHLHGREEVSKFWKHLLTEMRIEMTLKDLDSQGEFIVSVTELNINIDGKTIHTRMEIILVVVNGRLREVELRIK	2.3
SEQEHFDRLAFKLLLHSIHTGDWRLLTEEFDPNTLIIIGEKIHHGMEFVREHIEVLGADHVDIEIHIRHVRHQGNKADMDMQVDIDIDVNGRRIRIRSRRRYISLKVDGRWVTTSLEIK	0.939
SEQEKELQDALEILMHRWLTGDEDFLYEMMDPNVRFTINGQDFHGRDFFRQKWKELGLTRVEIDLKFVRLQGDKATVHGHINFNGRTTDVIMYIDKVNGVWITKTIEFR	2.17
SEQERKVREWTEEEIRWFLTGDEDIWSHFADPNARSVHHIGNKTIHTHGMEDVTRVIRELLQELGADHRTVHELEIQGDKSTVNLEIRIGDKTYEVHIIIIIINGKRKYHIVHFRVQ	0.982

Sequence	protease stability score
SEQHEITEHIARIILEFLTTGDFTEFFKMLDPHVRITVGDKFNVGRHVFWHLWQELFDHIRIRHISLKHIHIVDGRLHLDTRVHGKVDGKETTLDQHIHIEIINGRITSVNLEYR	2.12
SEQHKIAQEMAERILELWQTGDEDTFRYLADPHYRLHIIINGKHHDHHGREEWDKWYRELLDRIDHVRLIWRSVETQGDKLRVDGELVLIIDGKRIVEKVHLEFRVIDGVLRHETIKVR	1.48
SEQSKHVKDMFDTWVHSERTGDWRVAKELVDPNARIDINGREFHGMEEAERLAHEIFTRIDHKELRIDHVHFINGVFKVEGTVIFRQGDKQFTIETRIHLFVINGRLKELKVEFI	1.15
SEQWEEAKRLTDLYLTTSHTGDEQLSREFMDPHARTIVDGVEVHGMEEWANRFMRFVKQLRVDFRIHDMDVQGEKVDVDIRIRFVFNGVEHRIESILIVHKINGRWLMKEQRII	1.34
SERDEEAKHLSEEIIRLWRTGDWKTFVRMLDPNDRMEVDGQSFHGMEDVIKFLLDFWKHLRIEDIRFRDLKYQGDKASSHTEVDVRIGDKQTRLHTEVDVLVVNGKLKSHRIKIE	1.08
SERDELVEKLMESALDFWRTGNEDLMERLLDPHVRLDINGREHHGREVVIKAFREIWMLLGIDHIDIHHVDIQGEYVHLDVRVKVNGKDTRSRIELIVVDGKITELIIRLR	2.51
SERDEVAHLAFEYLINTHQTGDWRLFKEYLDPNVRFHVGDKFFHGRESVSKFFEEEMHRLGFKHIEMEHFEQQGDYLTINLTVRVDGQEYKLIYFALKVDGRWILRSITFE	1.38
SERDKFTEEVARLWYHLLYTGNEELLQHMMDPDVRVHINGRTVVGRHEATRLLHELSETFGINHIHIHDIKIQGDKSDDDTEIQAPGRRVRVHIHLEIINGRIKRIEFRIE	1.68
SERDRHNEEMARHFIRLFLTGDWDDFQHLFDPNVRTHIDGRDYHGWRSTLEAVRTLEREIRIEEIRVEHVDTQGDFIHQDTKVDFNVNGQRVIRESKVHIYEVNGRIKEIEMHYH	0.486
SERDRIAKELKDILRSSRETGDERMMEELADPNVRFEINGVTIIGREEFYRWMSEWRLELEHSNDHDEREFDGQVNVDGTLVMRFTVNGQERREKVRITIHFLKVDGRWILHRIIIH	2.03
SEREDEMNHSRHLIEDSWRTGDFHITVRLADPHMKVIVGDYEYHGREHLHEVARNADIYHRIHINDWRIIGNKVEIDTEIDGFFNGVPHRTRVEIILSKINGRWILRSIIFR	1.31
SEREDITHEFIQKTIKAIHTGDFILLLRLLDPDMQFDIGDKEFIGRERLREFMEEWRVRVKHYEIEHVRLQGDKLETHTHEHREIWIGDKVVHERFDRKIEITKVDGQWAIKRVEII	0.284
SEREEDTEHHMRMLIKDHETGDWRSWKKLVDPHVKLEINGREHHGRELALHMFRRVDHIESTVRDRTIQGDKVHHDGHLIINVDGVNIIVRSEIILIKVDGQWRIEILIFR	0.957
SEREEEARKMTRRIIHTFFTGNEDFWDHLVDPNARVVINGVTVHGWERFQELLVDFLKEMRTRHIELRHLDAYGDKAHTDGRVDGDVNGQRVLRIEHLRVDVINGKVHSVEIEFR	0.916
SEREEEMKHLHKNLVHNLFTGDEDSHKKLADPNARSVFDGRDFIGMDWWSRYYRHVFERFKGLRLENHHIHFQGNYLHIEARSYIGDKEEIWHFDYFMFDGKVHEVRMEVTKR	0.813
SEREEENRRAFHKFWEIIKTGDEELQDTFADPHVRLDVDGKEFHGREWIVRMLTELLRRFGVDHITFKHVEVQGDKLIIHHRDEVGDKKFELHVIVDKINGRWYERHVSMSER	1.65
SEREEHDEFIMKLSLELEKTGDEHTIERLADPNPRIILEQGDKRITRHGWEHWEELLRRLGIKHIEFHRHKAINGQVHVDGTLRFDGVTVRSELVLIMVDGVMKTIKVIIR	1.44
SEREEHTEEVWRDWLQSILTGDEDDLKRLADPHVRLEINFDGRTLIYHGREIVARFWSELRIRHFTLRHLKMIGDKIQVKGETKLEQGDKKVDSSVDLDTDIINGVIKREFVVYR	0.892
SEREEKIEHALRRLFEVILTGDERLANELLDPNVLLDVGDKKIHGREEVMRILHHWRIDKFEMHTHDIRLIGEKAHVDTISDRRVHVNGRTQDITERVHFVVLKVNGVWFIHSMHIH	1.59
SEREELVRYAIELMEEVMRTGDERLIESMADPNTRVVVNGVELHGRNHLLRVWSEWRTRDMREREVHVYDGRIEMHGTSDITIGDKHVITDTRHIAEKVDGRWILRSVEFR	0.405
SEREESFEKWVEMYERALQTGDEEHISRLMDPNARSNINGVELHGREQTLEWLRHVKENLGVERVDVRVNLHRYRVIGNYIESDQELILIYNGREFRFHFHFIARKINGRWVVDRLEIK	2.51
SEREEYLEEMFHLFIHYLLTGDWELLINLMDPHARNEIHINGVIFLVHGRELVKEIWERFRKHIRIKHIHVEELRVQGDKAESHTWVHYTIDGRESRVFTRVEIRIIDGVVRRISVEIR	1.72
SEREEYSHRAVELLIHLLRTGDEDMISKLADPNTYLDWNGREEVGMEDWLRLLREMRIHDVIIHTIEIQGDKIHMDVIIDGEFDGRRTEMRVHLILLKVNGRWVLTEVKIH	1.03
SEREHEALRWMELIIDLWITGDEEFTHKLADPHAKYEYGDKVIHGMEEFTRIMNEWRIKRVHLHEFRFIGNFSHSNMHRRGNIDGVDVDTEITVTVVIVNGRISSISIEVR	0.751
SEREHEVQESLEILIKLWHTGDFRAISEYADPNVRSDVNGKEFHGRENVEEALERSMKDLGVKVVHSEHIEHLEIYGNKVIVHVRIDGEVDGKRFHSHFIMYTTKVDGQWRVHEIRVH	1.03
